Patent US20240398942A1 (CHIA TAI TIANQING PHARMACEUTICAL GROUP, published 2024)
Where two headings read alike, the source gives them in different places.

Legend:
human CD40-Fc protein [1] = molecular target: T1, human CD40-Fc protein (human, biotinylated (sites not given) in the capture ELISA and the benchmark blocking ELISA; not biotinylated in the ligand blocking ELISA); assay: capture ELISA: antibody captured on coated goat anti-human IgG F(ab')2, biotinylated human CD40-Fc 1.15 nM, streptavidin-HRP, OD(450-630)
T1 construct: also called biotinylated human CD40-Fc
Experimental: (§1) The plate was washed once with a washing buffer (PBS+0.05% v/v of Tween-20, PBST) and then blocked with 200 μL/well blocking buffer (PBST containing 5% w/v of skim milk) for 2 h at 37° C. The plate was washed 4 times, and the anti-CD40 antibody of the present application, BM1, BM2, and a negative control hIgG (human immunoglobulin for intravenous injection (pH 4), Hualan Biological Engineering Inc.) serially 5-fold diluted from 66.7 nM in a PBST containing 2.5% w/v of skim milk was added at 100 μL per well. The plate was incubated for 40 min at 37° C. and washed 4 times. A biotinylated human CD40-Fc protein (amino acid residues 21-193 of SEQ ID NO: 30 linked to the N terminus of amino acid residues 99-330 of SEQ ID NO: 28, dissolved in PBST containing 2.5% w/v of skim milk at a concentration of 1.15 nM) was added at 100 μL/well to a 96-well plate coated with the anti-CD40 antibody. The plate was incubated at 37° C. for 40 min and washed 4 times. An HRP-labeled streptavidin (diluted at 1:10000 in PBST, Jackson Immuno Research, Cat. No. 016-030-084) was added at 100 μL/well, and the plate was incubated at 37° C. for another 40 min. After the last wash, 100 μL/well of ELISA substrate TMB (Innoreagents, Cat. No. TMB-S-002) was added and the plate was incubated at room temperature. After 3-10 min, the reaction was stopped by adding 1 M H₂SO₄ at 50 µL/well, and the absorbance of each well was read on a microplate reader using the dual wavelength mode (TMB detection wavelength: 450 nm, reference wavelength: 630 nm). Curves of OD(450-630) values vs. antibody concentration were plotted. Data were analyzed using Graphpad Prism software, and EC₅₀ values were obtained.

[2] = molecular target: T2, recombinant human CD40-his (Acro biosystems, Cat. No. CD0-H5228) (human, UniProt P25942 21-193); assay: SPR (Biacore T200), antibody captured on anti-human IgG chip, CD40-his as analyte, 1:1 fit
T2 construct: Bought protein; also called human CD40-his protein; not shown: His tag
From the text: (§2) Briefly, a goat anti-human IgG (GE Healthcare, Cat. No. BR100839, human antibody capture kit) was covalently linked to a CM5 chip (GE Healthcare, Cat. No. BR100530, carboxymethylated dextran-coated chip) via the primary amine group using a standard amine coupling kit supplied by Biacore (GE Healthcare, Pittsburgh, PA, USA). Unreacted portions on the biosensor surface were blocked with ethanolamine. Then, the anti-CD40 antibody of the present application and two benchmark antibodies (BM1 (dacetuzumab, Genentech Inc., also referred to CD40-BM1, prepared in-house; the heavy and light chain amino acid sequences are set forth in SEQ ID NOs: 40 and 41, respectively) and BM2 (selicrelumab, Abgenix Inc., also referred to CD40-BM2, prepared in-house; the heavy and light chain amino acid sequences are set forth in SEQ ID NOS: 42 and 43, respectively)) at a concentration of 66.67 nM were directed through the chip at a flow rate of 10 μL/min. Then, serially diluted recombinant human CD40-his (Acro biosystems, Cat. No. CD0-H5228, serially 2-fold diluted from 80 nM in HBS-EP⁺ buffer (supplied by Biacore)) or cynomolgus monkey CD40-his protein (Acro biosystems, Cat. No. CD0-C52H6, serially 2-fold diluted from 80 nM in HBS-EP⁺ buffer (supplied by Biacore)) was directed through the chip at a flow rate of 30 μL/min. The antigen-antibody binding kinetics was tracked for 2 min and the dissociation kinetics was tracked for 10 min. The association and dissociation curves were fitted to a 1:1 Langmuir binding model using BIAcore evaluation software. KD, Kₐ, and Kd values were determined.

[3] = molecular target: T3, cynomolgus monkey CD40-his protein (Acro biosystems, Cat. No. CD0-C52H6) (cynomolgus monkey, UniProt G7PG38 21-193); assay: as above
T3 construct: Bought protein; not shown: His tag
From the text: as §2

human CD40-Fc protein [4] = molecular target: T1, human CD40-Fc protein; assay: capture ELISA: antibody captured on coated goat anti-human IgG F(ab')2, biotinylated human CD40-Fc 1.15 nM, streptavidin-HRP, OD(450-630); remark: listed apart in the source
Experimental: as §1

[5] = molecular target: T2, recombinant human CD40-his (Acro …); assay: BLI (Octet RED 96), antibody captured on AHC sensor, human CD40-his as analyte, 1:1 fit
Experimental: After six days of culture in a shake flask, the cell supernatant containing the humanized antibodies huC1H1-V1 to huC1H1-V4 was harvested and the binding affinity of the antibodies to human CD40 was determined on an Octet system (Fortebio, Octet RED 96) according to the following procedures. Briefly, an anti-human IgG Fc capture (AHC) biosensor (from ForteBio) was pre-soaked in a 10 mM glycine solution (pH 1.5) for 3 s, and then soaked in a running buffer (PBST containing 0.5% w/v of BSA) for 3 s. The pre-soaking and soaking procedures were repeated 3 times. Then, the sensor was soaked in the cell supernatant containing the humanized anti-CD40 antibody, chimeric antibody C1H1 dissolved in HBS-EP⁺ buffer at a concentration of 5 μg/mL, or the benchmark dissolved in HBS-EP⁺ buffer at a concentration of 5 μg/mL for 120 s, and then soaked in the running buffer for 5 min. The new baseline was run in the running buffer for 180 s. The sensor was then soaked for 120 s in human CD40-his protein (Acro biosystems, Cat. No. CD0-H5228) 2-fold serially diluted from 40 nM in the running buffer and for 10 min in the running buffer […]. Finally, the sensor was pre-soaked in a 10 mM glycine solution (pH 1.5) for 3 s, and then soaked in the running buffer for 3 s. The pre-soaking and soaking procedures were repeated 3 times. The association and dissociation curves were fitted to a 1:1 Langmuir binding model using ForteBio Data Analysis 8.1.

T1 sequence (chain, as listed by the source limits assumed): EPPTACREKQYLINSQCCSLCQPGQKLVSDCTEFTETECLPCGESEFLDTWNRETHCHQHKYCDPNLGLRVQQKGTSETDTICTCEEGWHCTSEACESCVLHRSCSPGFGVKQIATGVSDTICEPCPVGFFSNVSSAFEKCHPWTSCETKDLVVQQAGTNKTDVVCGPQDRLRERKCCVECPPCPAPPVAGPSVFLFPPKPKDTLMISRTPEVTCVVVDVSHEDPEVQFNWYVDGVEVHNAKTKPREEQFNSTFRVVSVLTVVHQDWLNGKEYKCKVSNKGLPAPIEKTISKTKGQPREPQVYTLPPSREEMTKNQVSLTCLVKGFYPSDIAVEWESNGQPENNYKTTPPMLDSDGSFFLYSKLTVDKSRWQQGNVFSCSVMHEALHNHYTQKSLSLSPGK
T2 sequence (P25942 21-193 limits assumed): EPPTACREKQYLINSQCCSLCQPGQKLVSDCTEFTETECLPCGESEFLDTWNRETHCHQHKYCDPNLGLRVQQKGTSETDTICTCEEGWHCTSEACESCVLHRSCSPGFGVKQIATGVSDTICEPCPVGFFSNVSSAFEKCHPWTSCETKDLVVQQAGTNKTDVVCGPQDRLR

| Binder | EC50 (human CD40-Fc protein [1]) | Kd [2] | koff [2] | kon [2] | Kd [3] | koff [3] | kon [3] | EC50 (human CD40-Fc protein [4]) | Kd [5] | koff [5] | kon [5] |
| --- | --- | --- | --- | --- | --- | --- | --- | --- | --- | --- | --- |
| BM1 (dacetuzumab) (antibody, human IgG1, kappa, V domains shown, Benchmark antibody, prepared in-house; also called CD40-BM1; benchmark) VH: EVQLVESGGGLVQPGGSLRLSCAASGYSFTGYYIHWVRQAPGKGLEWVARVIPNAGGTSYNQKFKGRFTLSVDNSKNTAYLQMNSLRAEDTAVYYCAREGIYWWGQGTLVTVSS VL: DIQMTQSPSSLSASVGDRVTITCRSSQSLVHSNGNTFLHWYQQKPGKAPKLLIYTVSNRFSGVPSRFSGSGSGTDFTLTISSLQPEDFATYFCSQTTHVPWTFGQGTKVEIKR | 0.628 nM | 8.87 nM | 0.00656 s⁻¹ | 739000 M⁻¹ s⁻¹ | 9.89 nM | 0.00616 s⁻¹ | 623000 M⁻¹ s⁻¹ | 0.463 nM | – | – | – |
| chimeric antibody C1H1 (antibody, human IgG1, kappa, V domains shown, also called Chimeric C1H1) VH: EVKLVESGGGLVKPGASLKLSCAASGFTFSNYGISWVRQTSDKRLEWVASISSGGDNTYYPDNVKGRFTISRENAKNTLYLQMSSLKSEDTALYYCARAGEKAMDYWGQGTSVTVSS VL: DIVLTQSPVTLSVTPGDSVSLSCRASQTINNNLHWYQQKSHESPRLLIKYASQSISGIPSRFSGSGSGTDFTLSINSVETEDFGIYFCQQFSSWPLTFGAGTKLELKR | – | 0.861 nM | 0.00157 s⁻¹ | 1.82e+06 M⁻¹ s⁻¹ | 1.06 nM | 0.00148 s⁻¹ | 1.39e+06 M⁻¹ s⁻¹ | – | 0.633 nM | 0.000929 s⁻¹ | 1.47e+06 M⁻¹ s⁻¹ |
| BM2 (selicrelumab) (antibody, human IgG2, kappa, V domains shown, Benchmark antibody, prepared in-house; also called CD40-BM2; benchmark) VH: not shown VL: DIQMTQSPSSVSASVGDRVTITCRASQGIYSWLAWYQQKPGKAPNLLIYTASTLQSGVPSRFSGSGSGTDFTLTISSLQPEDFATYYCQQANIFPLTFGGGTKVEIKR | 1.36 nM | – | – | – | – | – | – | 0.909 nM | 1.12 nM | 0.000979 s⁻¹ | 874000 M⁻¹ s⁻¹ |
